From the RNAGym collection of RNA variant scans (doi:10.1021/acssynbio.7b00057)

B1: Pistol ribozyme (parent)
chain: GGGUCGUUGUUCCAUAAUCGCGUGGAUAUGGCACGCAAGUUUCUACCGGGCACCGUAAAUGUCCGACUGGAGCCGUUCGGGCGGCUAUAAACAGACCUCAGGCCCGAAGCGUGGCGGCACCUGCCGCCGGUGGUAAAAAAGAUCGGAAGAGCACACGUCU

Variants of: B1
Assay: aptazyme ON/OFF ratio, guanine; higher = stronger switching; co-transcriptional cleavage with and without guanine

| Variant | aptazyme ON/OFF ratio |
| --- | --- |
| U7G G9U U10C U11A C13A | 1.34 |
| U7G G9U U10C U11A C13U | 1.36 |
| U7G G9C U10G C12U | 1.38 |
| U7G G9C U10G C12G | 1.51 |
| U7G G9C U10G C12A | 1.65 |
| U7G G9C U10C C12G C13A | 1.31 |
| U7G G9C U10C C12G C13G | 1.09 |
| U7G G9C U10C C12G C13U | 1.23 |
| U7G G9C U11C C13A | 1.42 |
| U7G G9C U11C C13G | 1.06 |
| U7G G9C U11C C13U | 1.39 |
| U7G G9C U10C U11G C12U C13U | 1.34 |
| U7G G9C U10C U11G C12U C13A | 1.33 |
| U7G G9C U10C U11G C12U C13G | 1.26 |
| U7G G9C U10A U11C C12G | 1.27 |
| U7G G9C U10A U11C C12U | 1.46 |
| U7G G9C U10A U11C C12A | 1.76 |
| U7G G9C U10C U11C C12G C13G | 1.05 |
| U7G G9C U10C U11C C12G C13U | 1.06 |
| U7G G9C U10C U11C C12G C13A | 1.08 |
| U7G G9C U11G C12U C13A | 1.43 |

| Variant | aptazyme ON/OFF ratio |
| --- | --- |
| U7G G9C U11G C12U C13U | 1.2 |
| U7G G9C U11G C12U C13G | 1.27 |
| U7G G9C U10G U11C C12A C13U | 1.33 |
| U7G G9C U10G U11C C12A C13A | 1.19 |
| U7G G9C U10G U11C C12A C13G | 1.23 |
| U7G G9U U10C U11A C12U | 1.8 |
| U7G G9U U10C U11A C12G | 1.57 |
| U7G G9U U10C U11A C12A | 1.58 |
| U7G G9U U10A U11A C12G | 1.41 |
| U7G G9U U10A U11A C12U | 1.54 |
| U7G G9U U10A U11A C12A | 1.3 |
| U7G G9C U10G U11G C12A C13A | 1.1 |
| U7G G9C U10G U11G C12A C13U | 1.12 |
| U7G G9C U10G U11G C12A C13G | 1.13 |
| U7G G9U U10C C12U C13A | 1.38 |
| U7G G9U U10C C12U C13U | 1.34 |
| U7G G9U U10C C12U C13G | 1.31 |
| U7G G9U U10C U11A C12U C13G | 1.23 |
| U7G G9U U10C U11A C12U C13U | 1.33 |
| U7G G9U U10C U11A C12U C13A | 1.33 |
| U7G G9U U10A U11G C12G C13A | 1.04 |

| Variant | aptazyme ON/OFF ratio |
| --- | --- |
| U7G G9U U10A U11G C12G C13U | 1.25 |
| U7G G9U U10A U11G C12G C13G | 1.14 |
| U7G G9C U11G C13G | 1.31 |
| U7G G9C U11G C13U | 1.17 |
| U7G G9C U11G C13A | 1.29 |
| U7G G9C U10A U11A C12U | 1.65 |
| U7G G9C U10C C12U | 1.7 |
| U7G G9C U10C C12A | 1.5 |
| U7G G9C U10C C12G | 1.29 |
| U7G G9C U10A U11C C12A C13G | 1.23 |
| U7G G9C U10A U11C C12A C13U | 1.36 |
| U7G G9C U10A U11C C12A C13A | 1.34 |
| U7G G9C U10G U11A C12A C13U | 1.17 |
| U7G G9C U10G U11A C12A C13A | 1.13 |
| U7G G9C U10G U11A C12A C13G | 1.12 |
| U7G G9C U10G U11C C13A | 1.24 |
| U7G G9C U10G U11C C13G | 1.16 |
| U7G G9C U10G U11C C13U | 1.15 |
| U7G G9C U11A C12U | 1.65 |
| U7G G9C U11A C12A | 1.94 |
| U7G G9C U11A C12G | 1.65 |

| Variant | aptazyme ON/OFF ratio |
| --- | --- |
| U7G G9U U10A C13A | 1.44 |
| U7G G9U U10A C13U | 1.35 |
| U7G G9U U10A C13G | 1.18 |
| U7G G9C U10G U11A | 1.37 |
| U7G G9C U10G U11C | 1.17 |
| U7G G9C U10G U11G | 2.48 |
| U7G G9U U10A U11C C13A | 1.35 |
| U7G G9U U10A U11C C13U | 1.18 |
| U7G G9U U10A U11C C13G | 1.12 |
| U7G G9C U10A U11A C13G | 1.11 |
| U7G G9C U10A U11A C13U | 1.45 |
| U7G G9C U10A U11A C13A | 1.31 |
| U7G G9C U10C C12A C13G | 1.16 |
| U7G G9C U10C C12A C13U | 1.36 |
| U7G G9C U10C C12A C13A | 1.16 |
| U7G G9U C12U C13A | 1.28 |
| U7G G9U C12U C13U | 1.18 |
| U7G G9U C12U C13G | 1.31 |
| U7G G9C U10C U11G C12U | 1.57 |
| U7G G9C U10C U11G C12G | 1.1 |
